Results from patent US8357523B2, “Beta-glucosidase variant enzymes and related polynucleotides” (Codexis, Inc., priority 2009, dated 2013).

Assay: High throughput cellobiose assay: fold improvement in cellobiase activity of CelA variants over a control enzyme (Tables 2A-2D, 3, 5, 6, 7)
Assay type: biochemical
Conditions: 3.3 g/l cellobiose, 55° C. and pH 6.0

Row | Molecule | Fold improvement over Control Variant No. 5 from Table 2A
1 | 84 (protein) STAIAQEGAAPAAILHPEKWPRPATQRLIDPAVEKRVDALLKQLSVEEKVGQVIQGDIGTITPEDLRKYPLGSILAGGNSGPNGDDRAPPKEWLDLADAFYRVSLEKRPGHTPIPVLFGIDAVHGHGKIGSATIFPHNIALGATRDPELLRRIGEVTAVEMAATGIDWTFAPALSVVRDDRWGRTYEGFSEDPEIVAAYSAAIVEGVQGKFGSKDFMAPGRAVASAKHFLADGGTDQGRDQGDARISEDELIRIHNAGYPPAIDAGVLTVMASFSSWQGIKHHGHKQLLTDVLKGQMGFNGFIVGDWNAHDQVPGCTKFNCPTSLIAGLDMYMAADSWKQLYENTLAQVKDGTIPMARLDDAVRRILRVKVLAGLFEKPAPKDRPGLPGLETLGSPEHRAVGREAVRKSLVLLKNDKGTLPLSPKARVLVAGDGADNIGKQSGGWTISWQGTGNRNDEFPGATSILGGIRDAVADAGGSVEFDVAGQYKTKPDVAIVVFGEEPYAEFQGDVETLEYQPDQKQDLALLKKLKDQGIPVVAVFLSGRPMWVNPELNASDAFVAAWLPGTEGGGVADVLFTDKAGKVQHDFAGKLSYSWPRTAAQTTVNRGDADYNPLFAYGYGLTYKDKSKVGTLPEESGVPAEARQNAGIYFRAGALRLPGRFL | +++ (+++ = 6 to 13 fold improvement over control Variant No. 2)
2 | 88 (protein) STAIAQEGAAPAAILHPEKWPRPATQRLIDPAVEKRVDALLKQLSVEEKVGQVIQGDIGTITPEDLRKYPLGSILAGGDSGPNGDDRAPPKEWLDLADAFYRVSLEKRPGHTPIPVLFGIDAVHGHGNIGSATIFPHNIALGATRDPELLRRIGEVTAVEMAATGIDWTFAPALSVVRDDRWGRTYEGFSEDPEIVAAYSAAIVEGVQGKFGSKDFMAPGRIVASAKHFLADGGTDQGRDQGDARISEDELIRIHNAGYPPAIDAGVLTVMASFSSWQGIKHHGHKQLLTDVLKGQMGFNGFIVGDWNAHDQVPGCTKFNCPTSLIAGLDMYMAADSWKQLYENTLAQVKDGTIPMARLDDAVRRILRVKVLAGLFEKPAPKDRPGLPGLETLGSPEHRAVGREAVRKSLVLLKNDKGTLPLSPKARVLVAGDGADNIGKQSGGWTISWQGTGNRNDEFPGATSILGGIRDAVADAGGSVEFDVAGQYKTKPDVAIVVFGEEPYAEFQGDVETLEYQPDQKQDLALLKKLKDQGIPVVAVFLSGRPMWVNPELNASDAFVAAWLPGTEGGGVADVLFTDKAGKVQHDFAGKLSYSWPRTAAQTTVNRGDADYNPLFAYGYGLTYKDKSKVGTLPEESGVPAEARQNAGIYFRAGALRLPGRFL | ++ (++ = 1.1 to 6 fold improvement over control Variant No. 2)
3 | 209 (protein) STAIAQEGAAPAAILHPEKWPRPATQRLIDPAVEKRVDALLKQLSVEEKVGQVIQGDIGTITPEDLRKYPLGSILAGGDSGPNGDDRAPPKEWLDLADAFYRVSLEKRPGHTPIPVLFGIDAVHGHGNIGSATIFPHNIALGMTRDPELLRRIGEVTAEEMAATGIDWTFAPALSVVRDDRWGRTYEGFSEDPEIVASYSAAIVEGVQGKFGSKDFMAPGRIVASAKHFLADGGTDQGRDQGDARISEDELIRIHNAGYPPAIDAGVLTVMASFSSWQGIKHHGHKQLLTDVLKGQMGFNGFIVGDWNAHDQVPGCTKFNCPTSLIAGLDLYMAADSWKQLYENTLAQVKDGTIPMARLDDAVRRILRVKVLAGLFEKPAPKDRPGLPGLETLGSPEHRAVGREAVRKSLVLLKNDKGTLPLSPKARVLVAGDGADNIGKQSGGWTISWQGTGNRNDEFPGATSILGGIRDAVADAGGSVEFDVPGQYKTKPDVAIVVFGEEPYAEFQGDVETLEYQPDQKQDLALLKKLKDQGIPVVAVFLSGRPMWVNPELNASDAFVAAWLPGTEGGGVADVLFTDKAGKVQHDFAGKLSYSWPRTAAQTTVNRGDADYNPLFAYGYGLTYKDKSKVGTLPEESGVPAEARQNAGIYFRAGALRLPGRFL | ++ (++ = 1.1 to 6 fold improvement over control Variant No. 2)
4 | 85 (protein) STAIAQEGAAPAAILHPEKWPRPATQRLIDPAVEKRVDALLKQLSVEEKVGQVIQGDIGTITPEDLRKYPLGSILAGGDSGPNGNDRAPPKEWLDLADAFYRVSLEKRPGHTPIPVLFGIDAVHGHGNIGSATIFPHNIALGATRDPELLRRIGEVTAVEMAATGIDWTFAPALSVVRDDRWGRTYEGFSEDPEIVAAYSAAIVEGVQGKYGSKDFMAPGRIVASAKHFLADGGTDQGRDQGDARISEDELIRIHNAGYPPAIDAGVLTVMASFSSWQGIKHHGHKQLLTDVLKGQMGFNGFIVGDWNAHDQVPGCTKFNCPTSLIAGLDMYMAADSWKQLYENTLAQVKDGTIPMARLDDAVRRILRVKVLAGLFEKPAPKDRPGLPGLETLGSPEHRAVGREAVRKSLVLLKNDKGTLPLSPKARVLVAGDGADNIGKQSGGWTISWQGTGNRNDEFPGATSILGGIRDAVADAGGSVEFDVAGQYKTKPDVAIVVFGEEPYAEFQGDVETLEYQPDQKQDLALLKKLKDQGIPVVAVFLSGRPMWVNPELNASDAFVAAWLPGTEGGGVADVLFTDKAGKVQHDFAGKLSYSWPRTAAQTTVNRGDADYNPLFAYGYGLTYKDKSKVGTLPEESGVPAEARQNAGIYFRAGALRLPGRFL | ++ (++ = 1.1 to 6 fold improvement over control Variant No. 2)
5 | 87 (protein) STAIAQEGAAPAAILHPEKWPRPATQRLIDPAVEKRVDALLKQLSVEEKVGQVIQGDIGTITPEDLRKYPLGSILAGGDSGPNGDDRAPPKEWLDLADAFYRVSLEKRPGHTPIPVLFGIDAVHGHGNIGSATIFPHNIALGMTRDPELLRRIGEVTAVEMAATGIDWTFAPALSVVRDDRWGRTYEGFSEDPEIVASYSAAIVEGVQGKYGSKDFMAPGRIVASAKHFLADGGTDQGRDQGDARISEDELIRIHNAGYPPAIDAGVLTVMASFSSWQGIKHHGHKQLLTDVLKGQMGFNGFIVGDWNAHDQVPGCTKFNCPTSLIAGLDMYMAADSWKQLYENTLAQVKDGTIPMARLDDAVRRILRVKVLAGLFEKPAPKDRPGLPGLETLGSPEHRAVGREAVRKSLVLLKNDKGTLPLSPKARVLVAGDGADNIGKQSGGWTISWQGTGNRNDEFPGATSILGGIRDAVADAGGSVEFDVAGQYKTKPDVAIVVFGEEPYAEFQGDVETLEYQPDQKQDLALLKKLKDQGIPVVAVFLSGRPMWVNPELNASDAFVAAWLPGTEGGGVADVLFTDKAGKVQHDFAGKLSYSWPRTAAQTTVNRGDADYNPLFAYGYGLTYKDKSKVGTLPEESGVPAEARQNAGIYFRAGALRLPGRFL | +++ (+++ = 6 to 13 fold improvement over control Variant No. 2)
6 | 207 (protein) STAIAQEGAAPAAILHPEKWPRPATQRLIDPAVEKRVDALLKQLSVEEKVGQVIQGDIGTITPEDLRKYPLGSILAGGDSGPNGDDRAPPKEWLDLADAFYRVSLEKRPGHTPIPVLFGIDAVHGHGNIGSATIFPHNIALGMTRDPELLRRIGEVTAEEMAATGIDWTFAPALSVVRDDRWGRTYEGFSEDPEIVASYSAAIVEGVQGKFGSKDFMAPGRIVASAKHFLADGGTDQGRDQGDARISEDELIRIHNAGYPPAIDAGVLTVMASFSSWQGIKHHGHKQLLTDVLKGQMGFNGFIVGDWNAHDQVPGCTKFNCPTSLIAGLDMYMAADSWKQLYENTLAQVKDGTIPMARLDDAVRRILRVKVLAGLFEKPAPKDRPGLPGLETLGSPEHRAVGREAVRKSLVLLKNDKGTLPLSPKARVLVAGDGADNIGKQSGGWTISWQGTGNRNDEFPGATSILGGIRDAVADAGGSVEFDVAGQYKTKPDVAIVVFGEEPYAEFQGDVETLEYQPDQKQDLALLKKLKDQGIPVVAVFLSGRPMWVNPELNASDAFVAAWLPGTEGGGVADVLFTDKAGKVQHDFAGKLSYSWPRTAAQTPVNRGDADYNPLFAYGYGLTYKDKSKVGTLPEESGVPAEARQNAGIYFRAGALRLPGRFL | ++ (++ = 1.1 to 6 fold improvement over control Variant No. 2)
7 | 208 (protein) STAIAQEGAAPAAILHPEKWPRPATQRLIDPAVEKRVDALLKQLSVEEKVGQVIQGDIRTITPEDLRKYPLGSILAGGDSGPNGDDRAPPKEWLDLADAFYRVSLEKRPGHTPIPVLFGIDAVHGHGNIGSATIFPHNIALGMTRDPELLRRIGEVTAEEMAATGIDWTFAPALSVVRDDRWGRTYEGFSEDPEIVASYSAAIVEGVQGKFGSKDFMAPGRIVASAKHFLADGGTDQGRDQGDARISEDELIRIHNAGYPPAIDAGVLTVMASFSSWQGIKHHGHKQLLTDVLKGQMGFNGFIVGDWNAHDQVPGCTKFNCPTSLIAGLDMYMAADSWKQLYENTLAQVKDGTIPMARLDDAVRRILRVKVLAGLFEKPAPKDRPGLPGLETLGSPEHRAVGREAVRKSLVLLKNDKGTLPLSPKARVLVAGDGADNIGKQSGGWTISWQGTGNRNDEFPGATSILGGIRDAVADAGGSVEFDVAGQYKTKPDVAIVVFGEEPYAEFQGDVETLEYQPDQKQDLALLKKLKDQGIPVVAVFLSGRPMWVNPELNASDAFVAAWLPGTEGGGVADVLFTDKAGKVQHDFAGKLSYSWPRTAAQTTVNRGDADYNPLFAYGYGLTYKDKSKVGTLPEESGVPAEARQNAGIYFRAGALRLPGRFL | ++ (++ = 1.1 to 6 fold improvement over control Variant No. 2)
8 | 86 (protein) STAIAQEGAAPAAILHPEKWPRPATQRLIDPAVEKRVDALLKQLSVEEKVGQVIQGDIGTITPEDLRKYPLGSILAGGNSGPNGDDRAPPKEWLDLADAFYRVSLEKRPGHTPIPVLFGIDAVHGHGNIGSATIFPHNIALGMTRDPELLRRIGEVTAVEMAATGIDWTFAPALSVVRDDRWGRTYEGFSEDPEIVASYSAAIVEGVQGKFGSKDFMAMGRIVASAKHFLADGGTDQGRDQGDARISEDELIRIHNAGYPPAIDAGVLTVMASFSSWQGIKHHGHKQLLTDVLKGQMGFNGFIVGDWNAHDQVPGCTKFNCPTSLIAGLDMYMAADSWKQLYENTLAQVKDGTIPMARLDDAVRRILRVKVLAGLFEKPAPKDRPGLPGLETLGSPEHRAVGREAVRKSLVLLKNDKGTLPLSPKARVLVAGDGADNIGKQSGGWTISWQGTGNRNDEFPGATSILGGIRDAVADAGGSVEFDVAGQYKTKPDVAIVVFGEEPYAEFQGDVETLEYQPDQKQDLALLKKLKDQGIPVVAVFLSGRPMWVNPELNASDAFVAAWLPGTEGGGVADVLFTDKAGKVQHDFAGKLSYSWPRTAAQTTVNRGDADYNPLFAYGYGLTYKDKSKVGTLPEESGVPAEARQNAGIYFRAGALRLPGRFL | ++ (++ = 1.1 to 6 fold improvement over control Variant No. 2)
